# Assay results from article PMC5376635, “NDR1-Dependent Regulation of Kindlin-3 Controls High-Affinity LFA-1 Binding and Immune Synapse Organization” (Molecular and Cellular Biology, 2017).
# B1: Mouse ICAM-1-GPI (ligand)
# chain: QVSIHPREAFLPQGGSVQVNCSSSCKEDLSLGLETQWLKDELESGPNWKLFELSEIGEDSSPLCFENCGTVQSSASATITVYSFPESVELRPLPAWQQVGKDLTLRCHVDGGAPRTQLSAVLLRGEEILSRQPVGGHPKDPKEITFTVLASRGDHGANFSCRTELDLRPQGLALFSNVSEARSLRTFDLPATIPKLDTPDLLEVGTQQKLFCSLEGLFPASEARIYLELGGQMPTQESTNSSDSVSATALVEVTEEFDRTLPLRCVLELADQILETQRTLTVYNFSAPVLTLSQLEVSEGSQVTVKCEAHSGSKVVLLSGVEPRPPTPQVQFTLNASSEDHKRSFFCSAALEVAGKFLFKNQTLELHVLYGPRLDETDCLGNWTWQEGSQQTLKCQAWGNPSPKMTCRRKADGALLPIGVVKSVKQEMNGTYVCHAFSSHGNVTRNVYLTVLYHSQNN
# modifications: GPI anchor; labeled with ATTO-647N-NHS-ester
# Tests used:
# LFA-1 [1] = target: T1, LFA-1 (mouse (endogenous in OT-II T cells), UniProt P24063 24-1162; P11835 24-771); test: single-molecule tracking by TIRF microscopy on supported lipid bilayers; as a1 but with 1 mM Mn^2+ and in the absence of pMHC, similar ICAM-1 density; settings: one partner purified
# T1 construct: integrin αL subunit of LFA-1, mouse; integrin β2 subunit of LFA-1, mouse; also called αL/β2 integrin; source: endogenous, on naive OT-II T cells and OT-II T cell blasts (mouse)
# T1 sequence (P24063 24-1162, chain 1 of 2): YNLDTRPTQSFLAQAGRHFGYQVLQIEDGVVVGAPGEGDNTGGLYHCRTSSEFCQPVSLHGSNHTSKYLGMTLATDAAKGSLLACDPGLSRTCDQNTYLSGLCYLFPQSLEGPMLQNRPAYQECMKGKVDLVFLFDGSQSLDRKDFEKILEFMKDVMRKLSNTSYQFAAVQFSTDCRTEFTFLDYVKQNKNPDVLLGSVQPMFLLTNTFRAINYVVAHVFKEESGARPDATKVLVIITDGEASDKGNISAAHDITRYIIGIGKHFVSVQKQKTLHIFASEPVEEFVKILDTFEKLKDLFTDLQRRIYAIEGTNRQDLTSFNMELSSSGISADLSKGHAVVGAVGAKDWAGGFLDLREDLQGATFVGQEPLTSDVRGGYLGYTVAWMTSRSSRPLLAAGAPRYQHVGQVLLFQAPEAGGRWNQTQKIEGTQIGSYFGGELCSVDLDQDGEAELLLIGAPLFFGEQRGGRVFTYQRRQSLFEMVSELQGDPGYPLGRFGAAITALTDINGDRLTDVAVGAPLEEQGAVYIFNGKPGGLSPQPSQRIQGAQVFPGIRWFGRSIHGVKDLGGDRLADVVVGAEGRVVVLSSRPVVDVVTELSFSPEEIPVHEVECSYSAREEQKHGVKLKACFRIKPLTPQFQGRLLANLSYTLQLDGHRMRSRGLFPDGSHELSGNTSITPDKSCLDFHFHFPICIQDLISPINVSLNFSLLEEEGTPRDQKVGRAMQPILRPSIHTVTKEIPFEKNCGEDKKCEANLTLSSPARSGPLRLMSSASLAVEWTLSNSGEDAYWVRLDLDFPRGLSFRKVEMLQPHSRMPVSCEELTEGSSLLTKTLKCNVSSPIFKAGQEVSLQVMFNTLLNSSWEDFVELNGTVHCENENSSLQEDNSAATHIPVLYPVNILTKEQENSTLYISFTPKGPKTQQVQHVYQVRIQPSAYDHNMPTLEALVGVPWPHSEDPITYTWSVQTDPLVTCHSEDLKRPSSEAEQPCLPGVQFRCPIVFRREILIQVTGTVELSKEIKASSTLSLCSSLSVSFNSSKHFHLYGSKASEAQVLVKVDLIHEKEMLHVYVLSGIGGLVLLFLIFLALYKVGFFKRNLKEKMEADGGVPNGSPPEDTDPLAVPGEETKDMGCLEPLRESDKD
# T1 sequence (P11835 24-771, chain 2 of 2): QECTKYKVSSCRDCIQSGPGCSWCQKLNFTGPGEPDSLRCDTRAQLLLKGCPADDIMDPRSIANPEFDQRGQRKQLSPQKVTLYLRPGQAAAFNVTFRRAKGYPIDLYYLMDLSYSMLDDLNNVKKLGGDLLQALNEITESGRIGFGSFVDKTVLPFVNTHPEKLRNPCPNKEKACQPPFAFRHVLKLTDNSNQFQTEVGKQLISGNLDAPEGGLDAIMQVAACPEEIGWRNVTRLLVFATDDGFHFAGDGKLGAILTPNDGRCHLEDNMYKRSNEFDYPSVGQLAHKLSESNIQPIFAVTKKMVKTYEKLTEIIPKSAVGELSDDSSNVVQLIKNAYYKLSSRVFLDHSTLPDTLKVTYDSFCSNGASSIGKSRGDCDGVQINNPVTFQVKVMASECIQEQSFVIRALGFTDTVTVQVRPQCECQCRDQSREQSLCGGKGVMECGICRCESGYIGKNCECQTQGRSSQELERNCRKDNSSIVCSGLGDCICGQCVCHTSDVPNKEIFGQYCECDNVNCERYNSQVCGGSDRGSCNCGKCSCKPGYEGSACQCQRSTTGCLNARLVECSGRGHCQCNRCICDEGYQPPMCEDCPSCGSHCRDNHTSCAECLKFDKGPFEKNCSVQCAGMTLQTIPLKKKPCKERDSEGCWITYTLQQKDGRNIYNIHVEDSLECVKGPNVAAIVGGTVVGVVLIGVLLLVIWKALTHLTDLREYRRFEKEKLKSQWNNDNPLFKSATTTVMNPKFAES
# LFA-1 [2] = target: T1, LFA-1; test: single-molecule tracking by TIRF microscopy on supported lipid bilayers; ATTO-647N-labeled ICAM-1-GPI (300 molecules/μm^2) and I-A^b-OVA peptide (200 molecules/μm^2) in supported planar lipid bilayers; naive OT-II T cells or OT-II T cell blasts (also Rap1b KO, Mst1/2 DKO, kindlin-3 or NDR1 knock-down cells) on top; 30 frames/s for 200 s; arrests of 0.5 to 200 s counted as binding; koff from a single exponential fit …; settings: one partner purified
binder,measurement,setting,value
B1,fold increase of binding durations longer than 10 s with Mn^2+,LFA-1 [1],2 fold
same,koff,LFA-1 [2],0.032 s⁻¹
